According to patent US20050136043A1, “TGFbeta signaling inhibitors” (Ludwig Institute for Cancer Research, priority 2003, published 2005):

Assays:
[1] = system: phosphorylation of endogenous Smad2 by TβR-I in Mv1Lu cells; experiment: TGFβ1-dependent phosphorylation of endogenous Smad2 in Mv1Lu cells (pS2 immunoblot); assay type: cell-based; conditions: Mv1Lu cells pretreated with peptide, 15 min TGFβ1, FIG. 6A
[2] = biological target: T1, ActR-I (ALK-2) (Homo sapiens, UniProt Q04771); experiment: In vitro kinase assay (autophosphorylation) of receptor expressed in COS-7 cells; assay type: biochemical; conditions: 10 μM peptide, FIG. 5
T1 sequence (Q04771 21-509): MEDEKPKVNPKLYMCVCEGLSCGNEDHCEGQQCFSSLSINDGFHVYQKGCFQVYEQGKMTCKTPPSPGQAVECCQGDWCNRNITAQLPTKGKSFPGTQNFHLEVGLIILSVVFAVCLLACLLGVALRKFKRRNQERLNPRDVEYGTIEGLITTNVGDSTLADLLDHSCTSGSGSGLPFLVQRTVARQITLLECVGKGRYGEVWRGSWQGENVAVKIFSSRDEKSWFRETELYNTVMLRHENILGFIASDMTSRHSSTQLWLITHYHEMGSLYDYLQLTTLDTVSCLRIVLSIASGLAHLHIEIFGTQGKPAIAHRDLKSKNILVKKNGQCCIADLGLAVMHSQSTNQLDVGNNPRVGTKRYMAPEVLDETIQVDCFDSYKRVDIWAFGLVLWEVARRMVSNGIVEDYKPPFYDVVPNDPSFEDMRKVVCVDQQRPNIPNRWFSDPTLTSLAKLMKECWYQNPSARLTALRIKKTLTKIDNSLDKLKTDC
Procedure: (§1) For in vitro kinase assay of type I and type II TGFβ family receptors, p38α and SAPKα2 kinases, COS-7 cells were transfected with the kinase expression vectors or the control empty pcDNA3 vector using the DEAE-dextran method. Proteins were extracted in a lysis buffer (50 mM Tris-HCl, pH 7.5, 50 mM NaCl, 1% NP-40, 10 μg/mL aprotinin, 0.1 mM PMSF). HA-tagged proteins (ALK1 to ALK7, p38R, SAPKR2) were immunoprecipitated with anti-HA antibody (12CA5; Roche); His6-tagged proteins (type II receptors) were precipitated with Ni-NTA agarose (Qiagen). The precipitates were washed in extraction buffer, with 20 mM imidazole for Ni-NTA agarose-precipitated proteins, and two times with kinase buffer (20 mM HEPES, pH 7.4, 10 mM MgCl2, 2 mM MnCl2, 1 mM DTT). The kinase reaction was initiated by addition of 20 μL of kinase buffer containing 0.5 μCi of [γ-32P]ATP, 5.0 μM ATP, and inhibitory peptides at a final concentration of 10 μM. The reaction was performed at 22° C. for 20 min and terminated by addition of SDS-containing sample buffer and boiling for 5 min. The reaction products were analyzed by SDS-PAGE and exposure in a Fuji X2000 phosphorimager. Equal loading was controlled by immunoblotting aliquots of the samples with a HA probe (Y-11; Santa Cruz) or anti-His antibody (Qiagen).
(§2) To evaluate whether the substrate-mimicking peptides affect kinases of type I and type II reptors of the TGFβ family, we studied the influence of peptides on authophosphorylation of all known mammalian type I receptors [ALK-1, ActR-I (ALK-2), BMPR-IA (ALK-3), ActR-IB (ALK-4), TβR-I (ALK-5), BMPR-IB (ALK-6), and ALK-7], TβRII, ActR-II, BMPR-II, p38R, and SAPKR2 (FIG. 5). The kinases were expressed in COS-7 cells and purified by using specific anti-tag antibodies or Ni-NTA agarose, and kinase activity was tested in the presence of peptides.

[3] = biological target: T2, BMPR-II (Homo sapiens, UniProt Q13873); experiment: as above; assay type: biochemical; conditions: 10 μM peptide, FIG. 5
T2 construct: made in house; host or cells: COS-7 cells (transfected, Ni-NTA precipitated)
T2 sequence (Q13873 27-1038): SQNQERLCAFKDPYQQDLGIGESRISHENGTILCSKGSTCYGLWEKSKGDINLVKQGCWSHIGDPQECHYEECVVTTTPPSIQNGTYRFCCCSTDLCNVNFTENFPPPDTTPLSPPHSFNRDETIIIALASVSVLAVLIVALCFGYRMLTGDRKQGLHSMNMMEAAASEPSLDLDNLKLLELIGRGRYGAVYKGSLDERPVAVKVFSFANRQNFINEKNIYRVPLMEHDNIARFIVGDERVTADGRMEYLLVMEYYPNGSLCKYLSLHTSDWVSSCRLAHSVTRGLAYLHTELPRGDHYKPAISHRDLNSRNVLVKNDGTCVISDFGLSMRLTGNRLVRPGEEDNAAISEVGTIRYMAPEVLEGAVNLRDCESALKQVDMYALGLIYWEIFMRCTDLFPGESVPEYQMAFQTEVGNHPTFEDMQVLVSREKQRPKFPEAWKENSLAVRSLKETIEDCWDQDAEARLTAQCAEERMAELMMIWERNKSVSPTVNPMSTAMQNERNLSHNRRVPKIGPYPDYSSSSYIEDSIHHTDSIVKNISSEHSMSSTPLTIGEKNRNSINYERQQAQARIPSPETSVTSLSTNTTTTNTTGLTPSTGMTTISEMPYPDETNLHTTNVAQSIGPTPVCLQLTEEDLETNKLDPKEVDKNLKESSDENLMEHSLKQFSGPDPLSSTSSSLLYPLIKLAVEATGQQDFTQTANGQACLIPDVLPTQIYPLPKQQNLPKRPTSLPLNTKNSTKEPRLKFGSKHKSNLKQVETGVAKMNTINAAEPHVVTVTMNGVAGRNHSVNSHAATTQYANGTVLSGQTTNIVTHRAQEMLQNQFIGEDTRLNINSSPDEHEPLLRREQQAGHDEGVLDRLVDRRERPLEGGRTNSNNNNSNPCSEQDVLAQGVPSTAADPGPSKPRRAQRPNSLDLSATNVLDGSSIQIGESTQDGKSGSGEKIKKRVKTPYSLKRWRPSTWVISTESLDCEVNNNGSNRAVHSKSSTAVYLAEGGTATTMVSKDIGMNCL
Procedure: as §1, §2

[4] = biological target: T3, ActR-II (Homo sapiens, UniProt P27037); experiment: as above; assay type: biochemical; conditions: 10 μM peptide, FIG. 5
T3 construct: made in house; host or cells: COS-7 cells (transfected, Ni-NTA precipitated)
Procedure: as §1, §2

[5] = biological target: T4, BMPR-IA (ALK-3) (Homo sapiens, UniProt P36894); experiment: as above; assay type: biochemical; conditions: 10 μM peptide, FIG. 5
T4 construct: made in house; host or cells: COS-7 cells (transfected, immunoprecipitated)
Procedure: as §1, §2

[6] = biological target: T5, BMPR-IB (ALK-6) (Homo sapiens, UniProt O00238); experiment: as above; assay type: biochemical; conditions: 10 μM peptide, FIG. 5
T5 construct: made in house; host or cells: COS-7 cells (transfected, immunoprecipitated)
Procedure: as §1, §2

[7] = system: TGFβ1-dependent stimulation of ARE-luc in Mv1Lu cells; experiment: ARE-luc luciferase reporter assay (Smad2-responsive element) in Mv1Lu cells; assay type: cell-based; conditions: peptide 50 μM, TGFβ1 10 ng/ml, 18 hours

T3 sequence (P27037 20-513): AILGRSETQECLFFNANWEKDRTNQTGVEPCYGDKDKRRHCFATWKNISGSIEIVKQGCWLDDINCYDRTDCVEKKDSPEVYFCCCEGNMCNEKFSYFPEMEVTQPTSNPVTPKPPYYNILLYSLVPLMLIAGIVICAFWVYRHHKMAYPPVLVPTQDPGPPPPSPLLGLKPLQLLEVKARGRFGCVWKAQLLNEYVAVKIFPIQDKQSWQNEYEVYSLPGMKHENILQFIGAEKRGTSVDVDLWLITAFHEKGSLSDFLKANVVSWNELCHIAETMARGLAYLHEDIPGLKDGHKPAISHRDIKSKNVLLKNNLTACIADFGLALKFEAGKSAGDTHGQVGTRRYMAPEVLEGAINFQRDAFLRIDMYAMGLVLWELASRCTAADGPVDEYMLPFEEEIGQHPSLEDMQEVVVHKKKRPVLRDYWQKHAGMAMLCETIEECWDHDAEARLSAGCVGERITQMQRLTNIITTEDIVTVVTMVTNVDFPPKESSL
T5 sequence (O00238 14-502): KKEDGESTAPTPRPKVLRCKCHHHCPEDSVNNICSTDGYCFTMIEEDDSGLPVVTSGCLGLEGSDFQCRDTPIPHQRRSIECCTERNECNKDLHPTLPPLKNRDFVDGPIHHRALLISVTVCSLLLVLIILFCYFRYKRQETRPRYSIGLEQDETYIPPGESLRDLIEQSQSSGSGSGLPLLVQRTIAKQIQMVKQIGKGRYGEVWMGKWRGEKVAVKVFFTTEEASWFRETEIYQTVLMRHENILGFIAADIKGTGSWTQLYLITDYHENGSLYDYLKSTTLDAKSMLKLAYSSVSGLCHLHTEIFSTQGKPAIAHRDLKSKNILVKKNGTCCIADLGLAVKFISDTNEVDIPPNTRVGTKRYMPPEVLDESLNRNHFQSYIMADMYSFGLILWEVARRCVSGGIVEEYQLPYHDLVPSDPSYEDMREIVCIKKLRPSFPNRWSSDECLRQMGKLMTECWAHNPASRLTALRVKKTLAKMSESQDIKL
T4 sequence (P36894 24-532, species assumed): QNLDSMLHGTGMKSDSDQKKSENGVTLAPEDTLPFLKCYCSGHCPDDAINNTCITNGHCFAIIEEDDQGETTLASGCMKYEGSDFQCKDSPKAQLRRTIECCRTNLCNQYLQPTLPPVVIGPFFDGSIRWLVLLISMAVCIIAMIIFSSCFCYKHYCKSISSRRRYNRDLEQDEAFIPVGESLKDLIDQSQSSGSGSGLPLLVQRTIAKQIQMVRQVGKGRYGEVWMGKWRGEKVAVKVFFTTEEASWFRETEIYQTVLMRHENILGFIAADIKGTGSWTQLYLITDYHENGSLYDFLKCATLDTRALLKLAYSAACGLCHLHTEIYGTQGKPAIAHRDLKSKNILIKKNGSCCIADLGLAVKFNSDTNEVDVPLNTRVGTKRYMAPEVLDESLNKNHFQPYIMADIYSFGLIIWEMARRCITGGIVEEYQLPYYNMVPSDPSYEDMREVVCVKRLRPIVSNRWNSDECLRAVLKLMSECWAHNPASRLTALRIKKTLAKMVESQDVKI

Sequence	Effect of peptides on TGFβ1-dependent phosphorylation of endogenous Smad2 [1]	Effect on ActR-I (ALK-2) kinase [2]	Effect on BMPR-II kinase [3]	Effect on ActR-II kinase [4]	Effect on BMPR-IA (ALK-3) kinase [5]	Effect on BMPR-IB (ALK-6) kinase [6]	Effect on TGFβ1-dependent stimulation of ARE-luc [7]	Inhibition of TGFβ1-dependent phosphorylation of endogenous Smad2 compared to nontreated cells [1]	Inhibition of TGFβ1-dependent stimulation of ARE-luc [7]
RQIKIWFQNRRMKWKKTQMGSPSVRCSSMS (listed as Homo sapiens) [antp-Sm2S, penetratin fused to the C-terminus of wild-type Smad2]	weaker affect	without any effect	without any effect	without any effect	without any effect	without any effect	no effect	–	–
RQIKIWFQNRRMKWKKTQMGSPSVRCSAMA (listed as Homo sapiens) [antp-Sm2A]	–	without any effect	without any effect	without any effect	without any effect	without any effect	–	67%	up to 31%
